Measured values published in patent US20180100178A1 (CORNELL UNIVERSITY, published 2018).
One block for each binder: values may come before it.

B3: Alexa Fluor 488-labeled recombinant mouse GAC (FRET donor) (enzyme)
chain: SSSPSEILQELGKGGTPPQQQQQQQQQPGASPPAAPGPKDSPGETDAFGNSEGKEMVAAGDNKIKQGLLPSLEDLLFYTIAEGQEKIPVHKFITALKSTGLRTSDPRLKECMDMLRLTLQTTSDGVMLDKDLFKKCVQSNIVLLTQAFRRKFVIPDFMSFTSHIDELYESAKKQSGGKVADYIPQLAKFSPDLWGVSVCTVDGQRHSIGDTKVPFCLQSCVKPLKYAIAVNDLGTEYVHRYVGKEPSGLRFNKLFLNEDDKPHNPMVNAGAIVVTSLIKQGVNNAEKFDYVMQFLNKMAGNEYVGFSNATFQSERESGDRNFAIGYYLKEKKCFPEGTDMVGILDFYFQLCSIEVTCESASVMAATLANGGFCPITGERVLSPEAVRNTLSLMHSCGMYDFSGQFAFHVGLPAKSGVAGGILLVVPNVMGMMCWSPPLDKMGNSVKGIHFCHDLVSLCNFHNYDNLRHFAKKLDPRREGGDQRHSFGPLDYESLQQELALKDTVWKKVSPESSDDTSTTVVYRMESLGERS
modifications: labeled with Alexa Fluor 488 succinimidyl ester (sites not given)
notes: not shown: N-terminal His tag and thrombin cleavage site from pET28a
B4: QSY9-labeled recombinant mouse GAC (FRET acceptor) (enzyme)
chain: SSSPSEILQELGKGGTPPQQQQQQQQQPGASPPAAPGPKDSPGETDAFGNSEGKEMVAAGDNKIKQGLLPSLEDLLFYTIAEGQEKIPVHKFITALKSTGLRTSDPRLKECMDMLRLTLQTTSDGVMLDKDLFKKCVQSNIVLLTQAFRRKFVIPDFMSFTSHIDELYESAKKQSGGKVADYIPQLAKFSPDLWGVSVCTVDGQRHSIGDTKVPFCLQSCVKPLKYAIAVNDLGTEYVHRYVGKEPSGLRFNKLFLNEDDKPHNPMVNAGAIVVTSLIKQGVNNAEKFDYVMQFLNKMAGNEYVGFSNATFQSERESGDRNFAIGYYLKEKKCFPEGTDMVGILDFYFQLCSIEVTCESASVMAATLANGGFCPITGERVLSPEAVRNTLSLMHSCGMYDFSGQFAFHVGLPAKSGVAGGILLVVPNVMGMMCWSPPLDKMGNSVKGIHFCHDLVSLCNFHNYDNLRHFAKKLDPRREGGDQRHSFGPLDYESLQQELALKDTVWKKVSPESSDDTSTTVVYRMESLGERS
modifications: labeled with QSY9 succinimidyl ester (sites not given)
notes: also called QSY9-GAC; QSY9-labeled GAC; not shown: N-terminal His tag and thrombin cleavage site from pET28a

Key:
[1] = target: B4; assay: FRET, exchange with excess unlabeled GAC
[2] = target: B3; assay: FRET exchange (competition): excess unlabeled GAC added to preformed 488-labeled GAC / QSY9-GAC complexes; displaced competitor is QSY9-GAC; with or without 100 mM phosphate or sulfate [panel A]
[3] = target: the molecule itself; assay: SEC-MALS of 5 mg/ml protein, self-association (dimer/tetramer), without and after preincubation with BPTES; MW on a log axis [panel C]
Text: (§1) LS=light scattering; MW=molecular weight. […] Points represent the mean and error bars the standard deviation of three independent experiments.

[4] = target: the molecule itself; assay: SEC-MALS of 5 mg/ml protein, self-association (dimer/tetramer), without and after preincubation with BPTES; MW on a log axis [panel D]
Text: as §1

[5] = target: B4; assay: FRET, self-association of labeled GAC in solution
[6] = target: B3; assay: FRET time trace: 25 nM 488-labeled GAC (donor) + 75 nM QSY9-GAC (acceptor); 100 mM phosphate, sulfate or water added at 10 min [panel A]
[7] = target: the molecule itself; assay: SEC-MALS of 5 mg/ml protein, self-association, without and after preincubation with BPTES; MW on a log axis [panel B]
Text: LS=light scattering; MW=molecular weight.

- binding result [1]: binds
- binding result [2]: binds
B1: wild-type recombinant mouse glutaminase C (GAC), residues 73-603, unlabeled (enzyme)
chain: SSSPSEILQELGKGGTPPQQQQQQQQQPGASPPAAPGPKDSPGETDAFGNSEGKEMVAAGDNKIKQGLLPSLEDLLFYTIAEGQEKIPVHKFITALKSTGLRTSDPRLKECMDMLRLTLQTTSDGVMLDKDLFKKCVQSNIVLLTQAFRRKFVIPDFMSFTSHIDELYESAKKQSGGKVADYIPQLAKFSPDLWGVSVCTVDGQRHSIGDTKVPFCLQSCVKPLKYAIAVNDLGTEYVHRYVGKEPSGLRFNKLFLNEDDKPHNPMVNAGAIVVTSLIKQGVNNAEKFDYVMQFLNKMAGNEYVGFSNATFQSERESGDRNFAIGYYLKEKKCFPEGTDMVGILDFYFQLCSIEVTCESASVMAATLANGGFCPITGERVLSPEAVRNTLSLMHSCGMYDFSGQFAFHVGLPAKSGVAGGILLVVPNVMGMMCWSPPLDKMGNSVKGIHFCHDLVSLCNFHNYDNLRHFAKKLDPRREGGDQRHSFGPLDYESLQQELALKDTVWKKVSPESSDDTSTTVVYRMESLGERS
notes: one subunit is described; also called WT GAC; unlabeled GAC; not shown: N-terminal His tag and thrombin cleavage site from pET28a
- Specific activity of WT GAC without phosphate (mol Glu/min mol GAC), against [GAC]: specific activity (triangles, left axis) rises with [GAC] from about 90 at about 85 nM through about 400 at about 430 nM to about 500 at about 1000-1500 nM, flattening; no lower plateau inside the range (linear axis)
- binding result [3]: binds

B2: mouse GAC F327W mutant (residues 73-603) (enzyme)
chain: SSSPSEILQELGKGGTPPQQQQQQQQQPGASPPAAPGPKDSPGETDAFGNSEGKEMVAAGDNKIKQGLLPSLEDLLFYTIAEGQEKIPVHKFITALKSTGLRTSDPRLKECMDMLRLTLQTTSDGVMLDKDLFKKCVQSNIVLLTQAFRRKFVIPDFMSFTSHIDELYESAKKQSGGKVADYIPQLAKFSPDLWGVSVCTVDGQRHSIGDTKVPFCLQSCVKPLKYAIAVNDLGTEYVHRYVGKEPSGLRFNKLWLNEDDKPHNPMVNAGAIVVTSLIKQGVNNAEKFDYVMQFLNKMAGNEYVGFSNATFQSERESGDRNFAIGYYLKEKKCFPEGTDMVGILDFYFQLCSIEVTCESASVMAATLANGGFCPITGERVLSPEAVRNTLSLMHSCGMYDFSGQFAFHVGLPAKSGVAGGILLVVPNVMGMMCWSPPLDKMGNSVKGIHFCHDLVSLCNFHNYDNLRHFAKKLDPRREGGDQRHSFGPLDYESLQQELALKDTVWKKVSPESSDDTSTTVVYRMESLGERS
notes: as for B3
- binding result [4]: binds

Binder: B3
- binding result [5]: binds

Binder: B4
- binding result [6]: binds

B5: mouse GAC F327W,D391K double mutant (residues 73-603) (enzyme)
chain: SSSPSEILQELGKGGTPPQQQQQQQQQPGASPPAAPGPKDSPGETDAFGNSEGKEMVAAGDNKIKQGLLPSLEDLLFYTIAEGQEKIPVHKFITALKSTGLRTSDPRLKECMDMLRLTLQTTSDGVMLDKDLFKKCVQSNIVLLTQAFRRKFVIPDFMSFTSHIDELYESAKKQSGGKVADYIPQLAKFSPDLWGVSVCTVDGQRHSIGDTKVPFCLQSCVKPLKYAIAVNDLGTEYVHRYVGKEPSGLRFNKLWLNEDDKPHNPMVNAGAIVVTSLIKQGVNNAEKFDYVMQFLNKMAGNEYVGFSNATFQSERESGKRNFAIGYYLKEKKCFPEGTDMVGILDFYFQLCSIEVTCESASVMAATLANGGFCPITGERVLSPEAVRNTLSLMHSCGMYDFSGQFAFHVGLPAKSGVAGGILLVVPNVMGMMCWSPPLDKMGNSVKGIHFCHDLVSLCNFHNYDNLRHFAKKLDPRREGGDQRHSFGPLDYESLQQELALKDTVWKKVSPESSDDTSTTVVYRMESLGERS
notes: Found as a dimer by SEC-MALS; also called GAC double mutant; dimeric GACF327W,D391K double mutant; not shown: N-terminal His tag and thrombin cleavage site from pET28a
- binding result [7]: binds
